Measured values as given in patent US20030215451A1 (Genentech, published 2003).

Tests used:
[1] = target: integrin αvβ3 (UniProt P06756 31-1048; P05106 27-788); test: cell-based or functional assay
[2] = target: T1, Tie2 receptor (full length receptor construct) (UniProt Q02763 23-1124, limits assumed); test: co-immunoprecipitation from co-transfected 293 cells: anti-Tie2 IP, anti-gD immunoblot
T1 construct: whole, on cells; Full length receptor expressed in 293 cells and assayed from RIPA lysate, not on intact cells
T1 sequence (Q02763 23-1124 limits assumed): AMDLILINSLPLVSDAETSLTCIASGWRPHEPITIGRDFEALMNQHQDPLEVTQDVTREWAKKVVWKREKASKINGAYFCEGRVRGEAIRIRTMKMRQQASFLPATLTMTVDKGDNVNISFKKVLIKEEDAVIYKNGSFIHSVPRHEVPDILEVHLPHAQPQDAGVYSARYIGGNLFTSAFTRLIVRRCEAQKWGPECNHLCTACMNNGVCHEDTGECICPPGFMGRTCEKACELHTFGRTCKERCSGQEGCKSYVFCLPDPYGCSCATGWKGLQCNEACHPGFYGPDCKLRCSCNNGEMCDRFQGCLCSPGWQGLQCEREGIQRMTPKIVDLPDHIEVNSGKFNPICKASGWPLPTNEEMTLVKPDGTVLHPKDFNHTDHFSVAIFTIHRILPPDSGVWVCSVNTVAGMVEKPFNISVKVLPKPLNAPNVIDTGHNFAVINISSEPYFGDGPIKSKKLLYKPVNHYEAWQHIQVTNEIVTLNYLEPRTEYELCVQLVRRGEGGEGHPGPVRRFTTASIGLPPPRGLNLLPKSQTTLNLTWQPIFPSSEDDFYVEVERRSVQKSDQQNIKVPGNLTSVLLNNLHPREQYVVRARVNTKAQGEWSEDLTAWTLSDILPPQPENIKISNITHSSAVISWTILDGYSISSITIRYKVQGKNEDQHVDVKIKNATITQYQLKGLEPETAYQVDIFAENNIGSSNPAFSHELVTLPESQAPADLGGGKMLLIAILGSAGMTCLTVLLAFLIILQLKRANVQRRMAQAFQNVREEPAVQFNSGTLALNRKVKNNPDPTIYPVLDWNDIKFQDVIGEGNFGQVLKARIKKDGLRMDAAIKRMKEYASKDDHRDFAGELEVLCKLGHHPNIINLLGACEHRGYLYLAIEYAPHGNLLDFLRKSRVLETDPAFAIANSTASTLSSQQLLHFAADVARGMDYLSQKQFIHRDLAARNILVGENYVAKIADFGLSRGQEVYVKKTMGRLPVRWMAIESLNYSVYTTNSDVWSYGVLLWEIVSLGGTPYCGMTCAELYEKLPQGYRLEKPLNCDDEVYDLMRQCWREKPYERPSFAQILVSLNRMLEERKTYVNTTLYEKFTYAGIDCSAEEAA

[3] = target: T2, Tie1 receptor (full length receptor construct) (UniProt P35590 22-1138, limits assumed); test: co-immunoprecipitation from co-transfected 293 cells: anti-Tie1 IP, anti-gD immunoblot
T2 construct: whole, on cells; Full length receptor expressed in 293 cells and assayed from RIPA lysate, not on intact cells
T2 sequence (P35590 22-1138 limits assumed): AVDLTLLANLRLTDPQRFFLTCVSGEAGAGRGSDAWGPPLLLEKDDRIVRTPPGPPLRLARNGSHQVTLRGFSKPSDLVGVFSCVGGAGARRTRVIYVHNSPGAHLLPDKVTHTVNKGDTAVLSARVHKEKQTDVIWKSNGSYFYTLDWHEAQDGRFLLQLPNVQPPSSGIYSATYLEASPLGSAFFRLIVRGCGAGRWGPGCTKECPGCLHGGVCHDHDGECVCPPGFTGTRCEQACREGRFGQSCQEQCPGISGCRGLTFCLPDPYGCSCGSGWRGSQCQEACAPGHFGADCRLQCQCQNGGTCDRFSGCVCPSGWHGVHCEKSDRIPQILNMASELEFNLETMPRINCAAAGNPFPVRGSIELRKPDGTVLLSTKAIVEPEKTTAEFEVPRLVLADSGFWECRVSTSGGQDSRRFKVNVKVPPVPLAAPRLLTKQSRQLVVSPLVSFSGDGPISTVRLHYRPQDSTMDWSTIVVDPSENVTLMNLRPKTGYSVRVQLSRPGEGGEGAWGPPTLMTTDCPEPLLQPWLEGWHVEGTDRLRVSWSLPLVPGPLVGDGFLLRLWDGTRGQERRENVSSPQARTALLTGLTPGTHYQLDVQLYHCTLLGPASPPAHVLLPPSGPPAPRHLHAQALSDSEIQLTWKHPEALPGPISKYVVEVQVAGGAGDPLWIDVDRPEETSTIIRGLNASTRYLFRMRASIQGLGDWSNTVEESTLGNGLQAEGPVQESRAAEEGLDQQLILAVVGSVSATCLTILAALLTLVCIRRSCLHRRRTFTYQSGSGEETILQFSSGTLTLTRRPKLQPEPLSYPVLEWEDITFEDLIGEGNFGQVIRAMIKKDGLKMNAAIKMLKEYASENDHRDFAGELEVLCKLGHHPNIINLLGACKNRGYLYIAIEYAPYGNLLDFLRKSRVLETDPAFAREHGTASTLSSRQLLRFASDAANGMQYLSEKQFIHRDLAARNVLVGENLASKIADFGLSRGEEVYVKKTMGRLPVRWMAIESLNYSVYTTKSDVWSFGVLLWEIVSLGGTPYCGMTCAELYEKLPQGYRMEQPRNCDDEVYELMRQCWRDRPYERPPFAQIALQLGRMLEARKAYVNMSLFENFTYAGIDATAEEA

Chain of integrin αvβ3 (P06756 31-1048, chain 1 of 2): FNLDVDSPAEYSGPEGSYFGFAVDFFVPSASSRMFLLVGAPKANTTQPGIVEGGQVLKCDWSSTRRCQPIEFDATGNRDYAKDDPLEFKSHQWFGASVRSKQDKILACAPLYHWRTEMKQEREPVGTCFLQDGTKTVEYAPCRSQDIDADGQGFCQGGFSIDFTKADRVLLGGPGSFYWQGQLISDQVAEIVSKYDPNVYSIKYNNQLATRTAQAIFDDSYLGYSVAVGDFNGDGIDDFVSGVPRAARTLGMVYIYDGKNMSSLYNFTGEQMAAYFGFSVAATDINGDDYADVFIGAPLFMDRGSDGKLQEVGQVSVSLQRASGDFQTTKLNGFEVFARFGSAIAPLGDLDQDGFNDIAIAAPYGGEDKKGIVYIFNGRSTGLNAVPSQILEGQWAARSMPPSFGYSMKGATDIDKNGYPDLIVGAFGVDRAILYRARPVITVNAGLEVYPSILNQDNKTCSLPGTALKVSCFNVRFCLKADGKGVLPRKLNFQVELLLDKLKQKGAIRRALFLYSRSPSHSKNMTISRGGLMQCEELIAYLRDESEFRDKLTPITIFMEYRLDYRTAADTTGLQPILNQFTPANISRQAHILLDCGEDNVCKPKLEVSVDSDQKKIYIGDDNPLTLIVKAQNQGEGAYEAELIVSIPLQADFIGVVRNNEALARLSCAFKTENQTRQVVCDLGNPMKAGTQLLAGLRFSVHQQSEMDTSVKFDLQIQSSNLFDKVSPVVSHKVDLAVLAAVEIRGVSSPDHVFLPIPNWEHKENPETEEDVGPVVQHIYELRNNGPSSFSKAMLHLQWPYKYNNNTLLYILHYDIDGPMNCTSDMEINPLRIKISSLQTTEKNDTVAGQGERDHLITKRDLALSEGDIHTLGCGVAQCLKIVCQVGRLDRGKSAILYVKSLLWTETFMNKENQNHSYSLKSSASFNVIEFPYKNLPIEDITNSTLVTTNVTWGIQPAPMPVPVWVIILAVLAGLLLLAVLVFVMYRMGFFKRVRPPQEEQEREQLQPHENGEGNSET
Chain of integrin αvβ3 (P05106 27-788, chain 2 of 2): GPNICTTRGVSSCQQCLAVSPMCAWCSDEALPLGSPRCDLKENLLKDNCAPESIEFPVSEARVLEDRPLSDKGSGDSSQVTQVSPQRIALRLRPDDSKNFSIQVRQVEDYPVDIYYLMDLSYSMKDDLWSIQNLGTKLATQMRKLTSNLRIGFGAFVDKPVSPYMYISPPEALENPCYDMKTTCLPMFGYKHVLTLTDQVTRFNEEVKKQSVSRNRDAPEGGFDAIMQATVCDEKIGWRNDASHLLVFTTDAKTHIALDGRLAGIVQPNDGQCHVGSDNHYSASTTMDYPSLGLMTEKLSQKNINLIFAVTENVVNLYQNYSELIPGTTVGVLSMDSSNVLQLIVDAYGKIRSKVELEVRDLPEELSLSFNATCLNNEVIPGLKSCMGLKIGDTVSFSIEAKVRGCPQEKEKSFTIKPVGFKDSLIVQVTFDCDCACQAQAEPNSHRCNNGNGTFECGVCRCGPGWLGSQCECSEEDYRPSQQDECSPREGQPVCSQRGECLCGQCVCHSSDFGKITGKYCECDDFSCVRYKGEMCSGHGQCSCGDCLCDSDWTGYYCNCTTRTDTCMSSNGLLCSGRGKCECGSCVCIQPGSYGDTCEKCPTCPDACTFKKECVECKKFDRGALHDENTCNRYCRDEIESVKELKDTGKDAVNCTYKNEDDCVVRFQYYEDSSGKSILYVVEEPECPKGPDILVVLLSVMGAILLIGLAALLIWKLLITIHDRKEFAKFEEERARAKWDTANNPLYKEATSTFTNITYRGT

B1: recombinant human Angptl3 tagged with an amino-terminal gD epitope (ligand, not shown: small tags and cut ends)
chain: SRIDQDNSSFDSLSPEPKSRFAMLDDVKILANGLLQLGHGLKDFVHKTKGQINDIFQKLNIFDQSFYDLSLQTSEIKEEEKELRRTTYKLQVKNEEVKNMSLELNSKLESLLEEKILLQQKVKYLEEQLTNLIQNQPETPEHPEVTSLKTFVEKQDNSIKDLLQTVEDQYKQLNQQHSQIKEIENQLRRTSIQEPTEISLSSKPRAPRTTPFLQLNEIRNVKHDGIPAECTTIYNRGEHTSGMYAIRPSNSQVFHVYCDVISGSPWTLIQHRIDGSQNFNETWENYKYGFGRLDGEFWLGLEKIYSIVKQSNYVLRIELEDWKDNKHYIEYSFYLGNHETNYTLHLVAITGNVPNAIPENKDLVFSTWDHKAKGHFNCPEGYSGGWWWHDECGENNLNGKYNKPRAKSKPERRRGLSWKSQNGRLYSIKSTKMLIHPTDSESFE
modifications: glycosylated (PNGase-F sensitive)
notes: Purified from baculovirus-infected insect cells for the adhesion and migration assays; Expressed in transiently transfected 293 cells for the co-immunoprecipitation; Both are treated here as one molecule; also called hAngptl3; gD-tagged Angptl3
migration of HMVEC (cells/microscopic field) [1]: 2.5 fold | binding result [2]: no binding | binding result [3]: no binding
